Reference: article PMC12474313

Molecular target: rRABV-G-XVIII (rabies virus glycoprotein ectodomain fused to the human collagen XVIII trimerization domain) (rabies virus strain CVS-11 | human)
Assay: SEC

Substance: rRABV-G-XVIII (rabies virus glycoprotein ectodomain fused to the human collagen XVIII trimerization domain)
- percent trimeric protein: 96.3%
- stoichiometry N: 3
